Patent US20250074996A1 (Innovent, published 2025)
Numbering of substitutions follows the chain as printed. Like-named read-outs stand apart in the source and are kept apart here.

Legend:
[1] = molecular target: T1, CD3E on the surface of Jurkat-NFAT-Luc cells (UniProt P07766 23-207); test: cell-based or functional assay
[2] = molecular target: T1, CD3E on the surface of Jurkat-NFAT-Luc …; test: cell-based or functional assay; remark: listed apart in the source
[3] = molecular target: T1, CD3E on the surface of Jurkat-NFAT-Luc …; test: cell-based or functional assay; remark: listed apart in the source
[4] = molecular target: T1, CD3E on the surface of Jurkat-NFAT-Luc …; test: cell-based or functional assay; remark: listed apart in the source
[5] = molecular target: T1, CD3E on the surface of Jurkat-NFAT-Luc …; test: cell-based or functional assay; remark: listed apart in the source
Human CD3D&E-Bio = molecular target: T2, Human CD3D&E-Bio (human, UniProt P07766 23-126; P04234 22-105, biotin-labeled (site not stated)); test: BLI (Octet Red96e), SA or AHC sensors, 1:1 fit
T2 construct: Bought heterodimer antigen; also called human CD3D&E heterodimer antigen (ACRO Biosystems); human CD3E
Experimental: (§1) Sensors (Fortebio, Cat #18-5019) coupled to streptavidin protein (SA) or anti-human-Fc (AHC) were pre-wetted by immersion in 200 μL of SD buffer (1×PBS, 0.1% BSA, 0.05% tween-20). Exemplary antibodies and biotin-labeled or Fc-tagged BCMA and CD3D&E heterodimer antigens were diluted with SD buffer, respectively. 200 μL of SD buffer and diluted samples (100 nM) were taken and added to a 96-well black plate (Greiner, Cat #655209), respectively. The sensors and the samples were placed in Octet (Fortebio, Red96e). Data Acquisition 10.0 was executed and “New Kinetic Experiment” was selected. The sensors were arranged according to the positions of the samples, and the operation procedures and times were set as: Baseline 60 s, Loading 250 s, Baseline 100 s, Association 600 s and Dissociation 600 s. The experiment was conducted at a rotation speed of 1000 rpm and 30° C.
(§2) The results were analyzed in “Data Analysis 10.0” software, with the buffer reference channel being subtracted. 1:1 binding was selected to fit the data, and kₒₙ, koff, and KD values for the exemplary antibodies were calculated.
(§3) In experiments performed according to the above-mentioned assay, the affinities of the exemplary antibodies were detected using a human CD3D&E heterodimer antigen (ACRO Biosystems) and a monkey CD3D&E heterodimer antigen (ACRO Biosystems). The binding affinities of GPRC5D×CD3 bispecific antibodies hz5E12.1-P1/SP34.24 and hz5E12.1-P1/SP34.87 to human/monkey CD3D&E were also detected.

Cyno CD3D&E-Bio = molecular target: T3, Cyno CD3D&E-Bio (monkey (cyno), UniProt Q95LI5 22-117; Q95LI8 22-105, biotin-labeled (site not stated)); test: BLI (Octet Red96e), SA or AHC sensors, 1:1 fit
T3 construct: Bought heterodimer antigen; also called monkey CD3D&E heterodimer antigen (ACRO Biosystems); monkey CD3E
Experimental: as §1, §2, §3

T1 sequence (P07766 23-207): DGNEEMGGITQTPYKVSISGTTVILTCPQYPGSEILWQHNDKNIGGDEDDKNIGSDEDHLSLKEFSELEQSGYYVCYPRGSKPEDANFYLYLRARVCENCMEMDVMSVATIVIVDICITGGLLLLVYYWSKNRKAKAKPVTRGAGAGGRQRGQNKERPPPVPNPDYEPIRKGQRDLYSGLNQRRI
T3 sequence (Q95LI5 22-117 limits assumed, chain 1 of 2): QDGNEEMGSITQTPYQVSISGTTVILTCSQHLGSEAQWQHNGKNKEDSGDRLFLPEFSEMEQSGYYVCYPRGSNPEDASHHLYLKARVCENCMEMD
T3 sequence (Q95LI8 22-105 limits assumed, chain 2 of 2): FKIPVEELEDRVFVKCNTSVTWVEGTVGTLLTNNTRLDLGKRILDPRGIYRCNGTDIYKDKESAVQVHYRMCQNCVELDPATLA
T2 sequence (P07766 23-126 limits assumed, chain 1 of 2): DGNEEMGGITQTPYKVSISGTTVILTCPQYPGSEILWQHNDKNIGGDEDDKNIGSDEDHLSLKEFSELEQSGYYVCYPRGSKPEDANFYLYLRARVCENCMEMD
T2 sequence (P04234 22-105 limits assumed, chain 2 of 2): as the sequence (Q95LI8 22-105 limits assumed, chain 2 of 2) above, with V5I, K15N, V20I, T32S, N33D, N34I, A64T, N74S, L83V counted along it

B1: GPRC5D × CD3 (HB15H/hzsp34.24) (bispecific antibody, V domains shown)
VH 1: QVQLVESGGGVVQPGRSLRLSCTASGFTFSSYGLHWVRQAPGKGLEWVAVIWYDGSNKYYIDSVKGRFIISRDNSKNTLYLQMNSLRAEDTAVYYCARFTMFRGITLDYWGQGTLVTVSS
VL 1: DIQMTQSPSSLSASVGDRVTITCRASQRINSYLNWYQQKPGKAPKLLIYAASSLQSGVPSRFSGSGSGTDFTLTISNLQPEDFATYYCQQSYSTPLTFGGGTKVEIK
VH 2: EVQLVESGGGLVQPGGSLKLSCAASGFTFNTYAMNWVRQASGKGLEWVGRIRSKYNNYATYYADSVKDRFTISRDDSKSTLYLQMNSLKTEDTAVYYCARHGNFGQSYVSWFAYWGQGTTVTVSS
VL 2: QAVVTQEPSLTVSPGGTVTLTCRSSTGAVTTSNYANWVQQKPGQAPRGLIGGTNKRAPGVPARFSGSLLGDKAALTLLGAQPEDEAEYYCALWYSNLWVFGQGTKLTVL
EC50 of Jurkat-NFAT-Luc luciferase activation; tumor cells H929 [1]: 0.01 nM | EC50 of Jurkat-NFAT-Luc luciferase activation; tumor cells L363 [1]: 0.28 nM

B2: TS-F2-3 (ch7F5D4/SP34.24/38456) (antibody, human IgG1, kappa, lambda, L234A L235A)
heavy 1: not shown
light 1: DIQMTQTTSSLSASLGDRVTISCRASQDIRNYLNWYQQRPDGTIKLLIYYTSRLHSGVPSRFSGSGSGTDYSLTISNLDQEDFATYFCQQGNMLPWTFGGGTSLEIKRTVAAPSVFIFPPSDEQLKSGTASVVCLLNNFYPREAKVQWKVDNALQSGNSQESVTEQDSKDSTYSLSSTLTLSKADYEKHKVYACEVTHQGLSSPVTKSFNRGEC
heavy 2: not shown
light 2: QAVVTQEPSLTVSPGGTVTLTCRSSTGAVTTSNYANWVQQKPGQAPRGLIGGTNKRAPGVPARFSGSLLGDKAALTLLGAQPEDEAEYYCALWYSNLWVFGQGTKLTVLGQPKAAPSVTLFPPSSEELQANKATLVCLISDFYPGAVTVAWKADSSPVKAGVETTTPSKQSNNKYAASSYLSLTPEQWKSHRSYSCQVTHEGSTVEKTVAPTECS
EC50 of Jurkat-NFAT-Luc luciferase activation; target cells huGPRC5D-GS-CHO [2]: 0.00145 nM | EC50 of Jurkat-NFAT-Luc luciferase activation; tumor cells H929 [2]: 0.00547 nM | EC50 of Jurkat-NFAT-Luc luciferase activation; tumor cells L363 [2]: 0.00286 nM | EC50 of Jurkat-NFAT-Luc luciferase activation; tumor cells U266 [2]: 0.047 nM

B3: TS-F6-1 (antibody, human IgG1, kappa, L234A L235A)
heavy: not shown
light: DIQMTQTTSSLSASLGDRVTISCRASQDIRNYLNWYQQRPDGTIKLLIYYTSRLHSGVPSRFSGSGSGTDYSLTISNLDQEDFATYFCQQGNMLPWTFGGGTSLEIKRTVAAPSVFIFPPSDEQLKSGTASVVCLLNNFYPREAKVQWKVDNALQSGNSQESVTEQDSKDSTYSLSSTLTLSKADYEKHKVYACEVTHQGLSSPVTKSFNRGECGGGGSGGGGSQAVVTQEPSLTVSPGGTVTLTCRSSTGAVTTSNYANWVQQKPGQAPRGLIGGTNKRAPGVPARFSGSLLGDKAALTLLGAQPEDEAEYYCALWYSNLWVFGCGTKLTVLGGGGSGGGGSGGGGSGGGGSEVQLVESGGGLVQPGGSLKLSCAASGFTFNTYAMNWVRQASGKCLEWVGRIRSKYNNYATYYADSVKDRFTISRDDSKSTLYLQMNSLKTEDTAVYYCARHGNFGQSYVSWFAYWGQGTTVTVSS
EC50 of Jurkat-NFAT-Luc luciferase activation; target cells huGPRC5D-GS-CHO [2]: 0.00966 nM | EC50 of Jurkat-NFAT-Luc luciferase activation; tumor cells H929 [2]: 3.79 nM | EC50 of Jurkat-NFAT-Luc luciferase activation; tumor cells L363 [2]: 0.0771 nM | EC50 of Jurkat-NFAT-Luc luciferase activation; tumor cells U266 [2]: 0.366 nM

B4: TS-F6-2 (antibody, human IgG1, kappa, L234A L235A)
heavy: not shown
light: DIQMTQTTSSLSASLGDRVTISCRASQDIRNYLNWYQQRPDGTIKLLIYYTSRLHSGVPSRFSGSGSGTDYSLTISNLDQEDFATYFCQQGNMLPWTFGGGTSLEIKRTVAAPSVFIFPPSDEQLKSGTASVVCLLNNFYPREAKVQWKVDNALQSGNSQESVTEQDSKDSTYSLSSTLTLSKADYEKHKVYACEVTHQGLSSPVTKSFNRGECGGGGSGGGGSEVQLVESGGGLVQPGGSLKLSCAASGFTFNTYAMNWVRQASGKCLEWVGRIRSKYNNYATYYADSVKDRFTISRDDSKSTLYLQMNSLKTEDTAVYYCARHGNFGQSYVSWFAYWGQGTTVTVSSGGGGSGGGGSGGGGSGGGGSQAVVTQEPSLTVSPGGTVTLTCRSSTGAVTTSNYANWVQQKPGQAPRGLIGGTNKRAPGVPARFSGSLLGDKAALTLLGAQPEDEAEYYCALWYSNLWVFGCGTKLTVL
EC50 of Jurkat-NFAT-Luc luciferase activation; tumor cells H929 [2]: 2.2 nM | EC50 of Jurkat-NFAT-Luc luciferase activation; tumor cells L363 [2]: 0.0617 nM

B5: GPRC5D×CD3 bispecific antibody (ch7F5D4/hzsp34.24) (bispecific antibody, V domains shown)
VH 1: DVQLQESGPGLVKPSQSLSLTCTVTGYSITSDYAWNWIRQFPGNKLEWMVYIDYTGRTSYNPSLKSRISLTRDTSKNQFFLQFNSVTTEDTATYYCARGNYGRYYYVMDYWGQGTSVTVSS
VL 1: DIQMTQTTSSLSASLGDRVTISCRASQDIRNYLNWYQQRPDGTIKLLIYYTSRLHSGVPSRFSGSGSGTDYSLTISNLDQEDFATYFCQQGNMLPWTFGGGTSLEIK
VH 2: B1 VH 2
VL 2: B1 VL 2
EC50 of Jurkat-NFAT-Luc luciferase activation; target cells huGPRC5D-GS-CHO [2]: 0.00566 nM | EC50 of Jurkat-NFAT-Luc luciferase activation; tumor cells H929 [2]: 0.00772 nM | EC50 of Jurkat-NFAT-Luc luciferase activation; tumor cells L363 [2]: 0.00562 nM | EC50 of Jurkat-NFAT-Luc luciferase activation; tumor cells U266 [2]: 0.0361 nM

B6: GPRC5D×CD3 bispecific antibody hz5E12.1-P1/SP34.24 (bispecific antibody, V domains shown)
VH 1: QVQLVQSGAEVKKPGASVKVSCKASGYTFIGYVMHWVRQAPGQGLEWMGYINPYNDVSQHQGKFKGRVTMTSDTSTSTVYMELSSLRSEDTAVYYCAREGRLGLRVLAYWGQGTLVTVSS
VL 1: DIVMTQSPDSLAVSLGERATINCRASESVDSYGITFMNWYQQKPGQPPKLLIYAASNQGSGVPDRFSGSGSGTDFTLTISSLQAEDVAVYYCQQSKEVPWTFGQGTKLEIK
VH 2: B1 VH 2
VL 2: B1 VL 2
EC50 of Jurkat-NFAT-Luc luciferase activation; tumor cells 8226 [3]: 0.00318 nM | EC50 of Jurkat-NFAT-Luc luciferase activation; tumor cells H929 [3]: 0.00656 nM | EC50 of Jurkat-NFAT-Luc luciferase activation; tumor cells L363 [3]: 0.00559 nM | EC50 of Jurkat-NFAT-Luc luciferase activation; tumor cells U266 [3]: 0.0057 nM | EC50 of Jurkat-NFAT-Luc luciferase activation; tumor cells ARD [4]: 0.00273 nM | EC50 of Jurkat-NFAT-Luc luciferase activation; tumor cells MM.1S [4]: 0.00225 nM | EC50 of Jurkat-NFAT-Luc luciferase activation; tumor cells 8226 [5]: 0.00318 nM | EC50 of Jurkat-NFAT-Luc luciferase activation; tumor cells H929 [5]: 0.00656 nM | EC50 of Jurkat-NFAT-Luc luciferase activation; tumor cells L363 [5]: 0.00559 nM | EC50 of Jurkat-NFAT-Luc luciferase activation; tumor cells U266 [5]: 0.0057 nM | Kd (Human CD3D&E-Bio): 21.4 nM | koff (Human CD3D&E-Bio): 0.00335 s⁻¹ | kon (Human CD3D&E-Bio): 156000 M⁻¹ s⁻¹ | Kd (Cyno CD3D&E-Bio): 26 nM | koff (Cyno CD3D&E-Bio): 0.00319 s⁻¹ | kon (Cyno CD3D&E-Bio): 123000 M⁻¹ s⁻¹

B7: GPRC5D×CD3 bispecific antibody hz5E12.1-P1/SP34.87 (bispecific antibody, V domains shown)
VH 1: B6 VH 1
VL 1: B6 VL 1
VH 2: B1 VH 2 with G102Y
VL 2: B1 VL 2
EC50 of Jurkat-NFAT-Luc luciferase activation; tumor cells 8226 [3]: 0.0201 nM | EC50 of Jurkat-NFAT-Luc luciferase activation; tumor cells H929 [3]: 0.0453 nM | EC50 of Jurkat-NFAT-Luc luciferase activation; tumor cells L363 [3]: 0.0389 nM | EC50 of Jurkat-NFAT-Luc luciferase activation; tumor cells U266 [3]: 0.145 nM | EC50 of Jurkat-NFAT-Luc luciferase activation; tumor cells ARD [4]: 0.0149 nM | EC50 of Jurkat-NFAT-Luc luciferase activation; tumor cells MM.1S [4]: 0.0183 nM | Kd (Human CD3D&E-Bio): 285 nM | koff (Human CD3D&E-Bio): 0.0176 s⁻¹ | kon (Human CD3D&E-Bio): 61900 M⁻¹ s⁻¹ | Kd (Cyno CD3D&E-Bio): 290 nM | koff (Cyno CD3D&E-Bio): 0.0169 s⁻¹ | kon (Cyno CD3D&E-Bio): 58300 M⁻¹ s⁻¹

B8: BCMA×CD3 bispecific antibody (38456/hzsp34.24) (bispecific antibody, V domains shown)
VH 1: EVQLVESGGGLVQPGRSLRLSCAASGFTFGDYAIHWVRQAPGKGLEWVSGISWDSSSIAYADSVKGRFTISRDNAKNSLYLQMNSLRAEDTAVYYCAKDSPVRDSFGSIAFDIWGQGTMVTVSS
VL 1: EIVLTQSPATLSLSPGERATLSCRASQSVSSYLAWYQQKPGQAPRLLIYDASKRATGIPARFSGSGSGTDFTLTISSLEPEDFAVYYCQQASALPLTFGGGTKVEIK
VH 2: B1 VH 2
VL 2: B1 VL 2
EC50 of Jurkat-NFAT-Luc luciferase activation; tumor cells 8226 [3]: 0.00482 nM | EC50 of Jurkat-NFAT-Luc luciferase activation; tumor cells H929 [3]: 0.0596 nM | EC50 of Jurkat-NFAT-Luc luciferase activation; tumor cells L363 [3]: 0.0366 nM | EC50 of Jurkat-NFAT-Luc luciferase activation; tumor cells U266 [3]: 0.011 nM
